Source: patent US9688719B2, “Glycogen synthase kinase-3 inhibitors” (Ramot at Tel-Aviv University Ltd., priority 2011, dated 2017)
Square brackets hold non-standard residues; d marks the D form. Ends that are not written are not given here. * marks the point of attachment. Myristoyl = CCCCCCCCCCCCCC(=O)*; pS = N[C@@H](COP(=O)(O)O)C(=O)O

Key:
[1] = tested on: GSK-3β mutants Q89A, N95A, R92A, K94A, F93Y and TM (91-93); assay: In vitro kinase assay, inhibition of other GSK-3β mutants; format: biochemical, human; conditions: data not shown
Procedure: (§1) HEK-293 cells were grown in Dulbecco's Modified Eagle's Medium (DMEM), supplemented with 10% fetal calf serum (FCS), 2 mM glutamine, 100 units/ml penicillin, and 100 μg/ml streptomycin. HEK-293 cells were transiently transfected with indicated constructs, using calcium phosphate method as described [Ilouz et al. (2006) supra]. Cells were lysed in ice-cold buffer G (20 mM Tris-HCl, pH 7.5, 10 mM β-glycerophosphate, 10% glycerol, 1 mM EGTA, 1 mM EDTA, 50 mM NaF, 5 mM sodium pyrophosphate, 0.5 mM orthovanadate, 1 mM benzamidine, 10 μg/ml leupeptin, 5 μg/ml aprotinin, 1 μg/ml pepstatin, and 0.5% Triton X100). Cell extracts were centrifuged for 30 minutes at 15,000×g. […]
(§2) The GSK-3β proteins (WT or mutants) were incubated with indicated substrate in a reaction mixture (50 mM Tris-HCl, pH 7.3, 10 mM magnesium acetate, and 0.01% β-mercaptoethanol) together with 100 μM ^32P[γ-ATP] […] Reactions were stopped by spotting on p81 paper (Whatman) washed with phosphoric acid, and counted for radioactivity as previously described [Ilouz et al. (2006) supra]. In assays from cells overexpressing GSK-3 proteins, the activity of the endogenous GSK-3 that was determined in cells transfected with the pCMV4 vector was subtracted from the activity values obtained for WT and mutants. […]

GSK-3β F93A mutant = target: T1, GSK-3β F93A mutant (Homo sapiens, UniProt P49841, F93A); assay: In vitro kinase assay, inhibition of the F93A mutant; format: biochemical; conditions: FIGS. 2B, 2C
T1 construct: made in house; host or cells: HEK-293 (transient transfection, pCMV4; partial purification on DE-52)
Procedure: as §1, §2

GSK-3β = GSK-3β (Homo sapiens, UniProt P49841)
Procedure: (§3) The GSK-3β proteins (WT or mutants) were incubated with indicated substrate in a reaction mixture (50 mM Tris-HCl, pH 7.3, 10 mM magnesium acetate, and 0.01% β-mercaptoethanol) together with 100 μM ^32P[γ-ATP] (0.5 μCi/assay) for 15 minutes. Reactions were stopped by spotting on p81 paper (Whatman) washed with phosphoric acid, and counted for radioactivity as previously described [Ilouz et al. (2006) supra]. In assays from cells overexpressing GSK-3 proteins, the activity of the endogenous GSK-3 that was determined in cells transfected with the pCMV4 vector was subtracted from the activity values obtained for WT and mutants.
Purified GSK-3β was subjected to in vitro kinase assays using pIRS-1, p9CREB, and pGS-1 substrate in the presence or absence of L803-mts (100 μM).

GSK-3 = assay: Inhibition of cellular GSK-3 in SH-SY5Y cells (Western blot); format: cell-based, human; conditions: 20 or 40 μM, 5 hours, FIG. 8
Procedure: In an additional assay, human neuroblastoma SH-SY5Y cells, were treated with L803-mts (as set forth in SEQ ID NO:5) or L803F-mts (as set forth in SEQ ID NO:12) (20 or 40 μM) for 5 hours. Cells were collected and lysed in ice-cold buffer G (20 mM Tris pH 7.5, 10 mM β-glycerophosphate, 10% glycerol, 1 mM EGTA, 1 mM EDTA, 50 mM NaF, 5 mM sodium pyrophosphate, 0.5 mM orthovanadate, 1 mM benzamidine, 5 μg/ml leupeptin, 25 μg/ml aprotinin, 5 μg/ml pepstatin, and 0.5% Triton X100). Equal amounts of proteins (30 μg) were subjected to gel electrophoresis, transferred to nitrocellulose membranes, and immunoblotted with the anti-β-catenin antibody or anti-phospho-HSF-1 antibody (heat shock factor-1)(ser 303). FIG. 8 presents the β-catenin levels and phosphorylation levels of HSF-1 (ser 303) as determined by Western blot analysis using specific antibodies, with non-treated cells indicated as control (Con).

p9CREB = assay: In vitro kinase assay of GSK-3β mutants with substrate p9CREB; format: biochemical; conditions: mean ± SEM; WT set to 100%
Procedure: (§4) HEK-293 cells were grown in Dulbecco's Modified Eagle's Medium (DMEM), supplemented with 10% fetal calf serum (FCS), 2 mM glutamine, 100 units/ml penicillin, and 100 μg/ml streptomycin. HEK-293 cells were transiently transfected with indicated constructs, using calcium phosphate method as described [Ilouz et al. (2006) supra]. Cells were lysed in ice-cold buffer G (20 mM Tris-HCl, pH 7.5, 10 mM β-glycerophosphate, 10% glycerol, 1 mM EGTA, 1 mM EDTA, 50 mM NaF, 5 mM sodium pyrophosphate, 0.5 mM orthovanadate, 1 mM benzamidine, 10 μg/ml leupeptin, 5 μg/ml aprotinin, 1 μg/ml pepstatin, and 0.5% Triton X100). Cell extracts were centrifuged for 30 minutes at 15,000×g. Supernatants were collected, and equal amounts of proteins were boiled with SDS sample buffer and subjected to gel electrophoresis (7.5-12% polyacrylamide gel), transferred to nitrocellulose membranes, and immunoblotted with indicated antibodies. For partial purification, cells were lysed in buffer H (20 mM Tris, pH 7.3, 1 mM EGTA, 1 mM EDTA, 1 mM orthovanadate, 25 μg/ml leupeptin, 25 μg/ml aprotinin, and 25 μg/ml pepstatin A, 500 nM microcystine LR, and 0.25% Triton X100). The lysates were centrifuged at 15,000×g. The resulting supernatants were passed through DE-52 (Whatman, Maidstone, England) mini-columns that were equilibrated with buffer H. GSK-3β proteins were eluted with the same buffer containing 0.02 M NaCl. Equal amounts of proteins were used for in vitro kinase assays.
as §3
(§5) The GSK-3β mutants were partially purified by ion exchange chromatography, and their abilities to phosphorylate peptide substrates were tested in in vitro kinase assays. The substrates were: pIRS-1, p9CREB, and pGS-1, phosphorylated peptides derived from the insulin receptor substrate-1 (IRS-1), cAMP responsive element binding protein (CREB), and glycogen synthase, respectively.

pGS-1 = assay: In vitro kinase assay of GSK-3β mutants with substrate pGS-1; format: biochemical; conditions: mean ± SEM; WT set to 100%
Procedure: as §4, §3, §5

pIRS-1 = assay: In vitro kinase assay of GSK-3β mutants with substrate pIRS-1; format: biochemical; conditions: mean ± SEM; WT set to 100%
Procedure: as §4, §3, §5

Sequence of GSK-3β (P49841 1-433 isoform P49841-2): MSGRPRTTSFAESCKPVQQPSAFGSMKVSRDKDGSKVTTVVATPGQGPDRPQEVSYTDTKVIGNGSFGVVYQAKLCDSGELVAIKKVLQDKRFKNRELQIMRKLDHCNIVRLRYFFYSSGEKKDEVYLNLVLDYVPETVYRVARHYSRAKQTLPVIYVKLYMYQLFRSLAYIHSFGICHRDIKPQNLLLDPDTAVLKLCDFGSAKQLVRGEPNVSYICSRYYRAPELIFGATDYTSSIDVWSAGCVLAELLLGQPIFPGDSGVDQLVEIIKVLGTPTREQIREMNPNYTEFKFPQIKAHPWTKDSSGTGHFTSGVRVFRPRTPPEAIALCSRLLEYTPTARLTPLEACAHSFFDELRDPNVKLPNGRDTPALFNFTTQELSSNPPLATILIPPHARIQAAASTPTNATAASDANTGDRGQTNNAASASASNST
T1 sequence (P49841 1-433 isoform P49841-2 F93A): as the sequence (P49841 1-433 isoform P49841-2) above, with F93A counted along it

| Molecule | Substrate phosphorylation (% of WT GSK-3β), p9CREB (p9CREB) | Substrate phosphorylation (% of WT GSK-3β), pGS-1 (pGS-1) | Substrate phosphorylation (% of WT GSK-3β), pIRS-1 (pIRS-1) | other results |
| --- | --- | --- | --- | --- |
| L803-mts: L803 in which myristic acid was attached to its N-terminal; cell permeable variant (Myristoyl-GKEAPPAPPQ[pS]P) |  |  |  | inhibition of other GSK-3β mutants [1]: inhibit all other mutants; inhibition of substrate phosphorylation by F93A (GSK-3β F93A mutant): did not inhibit; competition with substrates pIRS-1, p9CREB, pGS-1 (GSK-3β; purified GSK-3β, 100 μM, FIG. 2A): competes with various substrates |
| KEAPPAPPQS(p)P (KEAPPAPPQ[pS]P) [L803] |  |  |  | inhibition of other GSK-3β mutants [1]: inhibited all other mutants; inhibition of substrate phosphorylation by F93A (GSK-3β F93A mutant): did not inhibit |
| Lys-Glu-Ala-Pro-Pro-Ala-Pro-Pro-Gln-phosphorylated Ser-Pro-Phe [L803F] |  |  |  | inhibition of substrate phosphorylation at increasing concentrations, compared to L803 (GSK-3β; FIG. 7): improved activity |
| Myristic-Gly-Lys-Glu-Ala-Pro-Pro-Ala-Pro-Pro-Gln-phosphorylated Ser-Pro-Phe (Myristoyl-GKEAPPAPPQ[pS]PF) [L803F-mts] |  |  |  | phosphorylation levels of HSF-1 (serine 303) (GSK-3): reduced the phosphorylation levels; β-catenin levels (GSK-3): elevation in β-catenin levels |
| K94A: GSK-3β mutant, K94 replaced by alanine (protein, GSK-3 beta, K94A mutant, GSK-3β mutant, K94 replaced by alanine) MSGRPRTTSFAESCKPVQQPSAFGSMKVSRDKDGSKVTTVVATPGQGPDRPQEVSYTDTKVIGNGSFGVVYQAKLCDSGELVAIKKVLQDKRFANRELQIMRKLDHCNIVRLRYFFYSSGEKKDEVYLNLVLDYVPETVYRVARHYSRAKQTLPVIYVKLYMYQLFRSLAYIHSFGICHRDIKPQNLLLDPDTAVLKLCDFGSAKQLVRGEPNVSYICSRYYRAPELIFGATDYTSSIDVWSAGCVLAELLLGQPIFPGDSGVDQLVEIIKVLGTPTREQIREMNPNYTEFKFPQIKAHPWTKDSSGTGHFTSGVRVFRPRTPPEAIALCSRLLEYTPTARLTPLEACAHSFFDELRDPNVKLPNGRDTPALFNFTTQELSSNPPLATILIPPHARIQAAASTPTNATAASDANTGDRGQTNNAASASASNST | 71 ± 4 % of WTGSK-3β | 19 ± 14 % of WTGSK-3β | 52 ± 19 % of WTGSK-3β |  |
| R92A: GSK-3β mutant, R92 replaced by alanine (protein, GSK-3 beta, R92A mutant, GSK-3β mutant, R92 replaced by alanine) MSGRPRTTSFAESCKPVQQPSAFGSMKVSRDKDGSKVTTVVATPGQGPDRPQEVSYTDTKVIGNGSFGVVYQAKLCDSGELVAIKKVLQDKAFKNRELQIMRKLDHCNIVRLRYFFYSSGEKKDEVYLNLVLDYVPETVYRVARHYSRAKQTLPVIYVKLYMYQLFRSLAYIHSFGICHRDIKPQNLLLDPDTAVLKLCDFGSAKQLVRGEPNVSYICSRYYRAPELIFGATDYTSSIDVWSAGCVLAELLLGQPIFPGDSGVDQLVEIIKVLGTPTREQIREMNPNYTEFKFPQIKAHPWTKDSSGTGHFTSGVRVFRPRTPPEAIALCSRLLEYTPTARLTPLEACAHSFFDELRDPNVKLPNGRDTPALFNFTTQELSSNPPLATILIPPHARIQAAASTPTNATAASDANTGDRGQTNNAASASASNST | 49 ± 19 % of WTGSK-3β | 41 ± 14 % of WTGSK-3β | 60 ± 3 % of WTGSK-3β |  |
| D90A: GSK-3β mutant, D90 replaced by alanine (protein, GSK-3 beta, D90A mutant, GSK-3β mutant, D90 replaced by alanine) MSGRPRTTSFAESCKPVQQPSAFGSMKVSRDKDGSKVTTVVATPGQGPDRPQEVSYTDTKVIGNGSFGVVYQAKLCDSGELVAIKKVLQAKRFKNRELQIMRKLDHCNIVRLRYFFYSSGEKKDEVYLNLVLDYVPETVYRVARHYSRAKQTLPVIYVKLYMYQLFRSLAYIHSFGICHRDIKPQNLLLDPDTAVLKLCDFGSAKQLVRGEPNVSYICSRYYRAPELIFGATDYTSSIDVWSAGCVLAELLLGQPIFPGDSGVDQLVEIIKVLGTPTREQIREMNPNYTEFKFPQIKAHPWTKDSSGTGHFTSGVRVFRPRTPPEAIALCSRLLEYTPTARLTPLEACAHSFFDELRDPNVKLPNGRDTPALFNFTTQELSSNPPLATILIPPHARIQAAASTPTNATAASDANTGDRGQTNNAASASASNST | 92 ± 21 % of WTGSK-3β | 83 ± 2 % of WTGSK-3β | 88 ± 15 % of WTGSK-3β |  |
| K91A: GSK-3β mutant, K91 replaced by alanine (protein, GSK-3 beta, K91A mutant, GSK-3β mutant, K91 replaced by alanine) MSGRPRTTSFAESCKPVQQPSAFGSMKVSRDKDGSKVTTVVATPGQGPDRPQEVSYTDTKVIGNGSFGVVYQAKLCDSGELVAIKKVLQDARFKNRELQIMRKLDHCNIVRLRYFFYSSGEKKDEVYLNLVLDYVPETVYRVARHYSRAKQTLPVIYVKLYMYQLFRSLAYIHSFGICHRDIKPQNLLLDPDTAVLKLCDFGSAKQLVRGEPNVSYICSRYYRAPELIFGATDYTSSIDVWSAGCVLAELLLGQPIFPGDSGVDQLVEIIKVLGTPTREQIREMNPNYTEFKFPQIKAHPWTKDSSGTGHFTSGVRVFRPRTPPEAIALCSRLLEYTPTARLTPLEACAHSFFDELRDPNVKLPNGRDTPALFNFTTQELSSNPPLATILIPPHARIQAAASTPTNATAASDANTGDRGQTNNAASASASNST | 161 ± 5 % of WTGSK-3β | 119 ± 5 % of WTGSK-3β | 140 ± 18 % of WTGSK-3β |  |
